The text below walks through data of patent US20240238420A1 (WUHAN UNIVERSITY, published 2024).

Experiment [1] has as its target CD123 combined mutant R84Q-V85I (Homo sapiens (Human)) (UniProt P26951). The experiment in a line: scFv-luciferase binding to transfected HEK 293T cells (FIG. 4A).
Experiment [2] deals with CD123 combined mutant R84Q-V85M (Homo sapiens (Human)) (UniProt P26951). Described as above.
Experiment [3] has as its target T1, wild-type CD33 protein (Homo sapiens (Human), UniProt P20138 18-364).
T1 construct: Expressed in transfected HEK 293T cells; A flag tag is mentioned for the Western blot constructs; no signal peptide limits are stated; also called Siglec3
The experiment in a line: scFv-luciferase binding to HEK 293T cells transfected with wildtype or mutant CD33 (RLU). The procedure: FIG. 1A-D. Determination of epitopes of CD33 that mediate the interaction by anti-CD33 scFv clone my9.6 or HM195. (A) Binding affinity of indicated CD33 mutations with anti-CD33 scFV clone my9.6. HEK 293T cells were transfected with wildtype or indicated CD33 mutant and then incubated with anti-CD33 scFV-luciferase fusion proteins, RLU: relative luminescence units. (B) Western blot of CD33 expression. HEK293T cells were transfected with flag tagged wild-type or indicated CD33 mutants. (C) Binding affinity of additional CD33 mutations. RLU: relative luminescence units (D) Western blot of CD33 expression. HEK293T cells were transfected with flag tagged wild-type or indicated CD33 mutants.
HEK 293T cells were transfected with wildtype or certain CD33 mutants and then incubated with anti-CD33 scFV-luciferase fusion proteins. The mutated residues included W22, C41, W60, I105, D112, Y116, F118, S131, and P132. The tested antibodies included my9.6 and HM195. […] FIGS. 1B and […] present Western blot images of CD33 expression from the transfected cells.

For experiment [4], the target named is T2, wild-type CD123 protein (Homo sapiens (Human), UniProt P26951 19-378).
T2 construct: no signal peptide limits are stated; also called alpha chain of interleukin-3 receptor
As to the kind of experiment: scFv-luciferase binding to HEK 293T cells transfected with wildtype or mutant CD123. As to the method:
HEK 293T cells were transfected with wildtype or indicated CD123 mutant and then incubated with anti-CD123 scFv-luciferase fusion proteins. (B) Western blot of CD123 expression. HEK293T cells were transfected with flag tagged wild-type or indicated CD123 mutants.
HEK 293T cells were transfected with wildtype or indicated CD123 mutant and then incubated with anti-CD123 scFv-luciferase fusion proteins. […] The expression of these mutants was confirmed by Western blot (FIG. 3B).

Sequence of CD123 combined mutant R84Q-V85I (Homo sapiens (Human)) (P26951 19-378 R84Q/V85I limits assumed): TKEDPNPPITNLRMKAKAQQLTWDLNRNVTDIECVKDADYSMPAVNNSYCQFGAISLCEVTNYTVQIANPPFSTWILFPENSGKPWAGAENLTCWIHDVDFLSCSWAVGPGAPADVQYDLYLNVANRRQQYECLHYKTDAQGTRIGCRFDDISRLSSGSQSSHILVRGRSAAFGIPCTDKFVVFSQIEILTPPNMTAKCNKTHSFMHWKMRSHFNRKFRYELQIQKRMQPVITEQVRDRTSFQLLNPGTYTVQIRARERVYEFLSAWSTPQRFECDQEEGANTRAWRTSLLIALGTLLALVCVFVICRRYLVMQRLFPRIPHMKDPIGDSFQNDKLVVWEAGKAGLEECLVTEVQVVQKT
T2 sequence (P26951 19-378 limits assumed): as the sequence (P26951 19-378 R84Q/V85I limits assumed) above, with Q66R, I67V counted along it
Sequence of CD123 combined mutant R84Q-V85M (Homo sapiens (Human)) (P26951 19-378 R84Q/V85M limits assumed): as the sequence (P26951 19-378 R84Q/V85I limits assumed) above, with I67M counted along it
T1 sequence (P20138 18-364 limits assumed): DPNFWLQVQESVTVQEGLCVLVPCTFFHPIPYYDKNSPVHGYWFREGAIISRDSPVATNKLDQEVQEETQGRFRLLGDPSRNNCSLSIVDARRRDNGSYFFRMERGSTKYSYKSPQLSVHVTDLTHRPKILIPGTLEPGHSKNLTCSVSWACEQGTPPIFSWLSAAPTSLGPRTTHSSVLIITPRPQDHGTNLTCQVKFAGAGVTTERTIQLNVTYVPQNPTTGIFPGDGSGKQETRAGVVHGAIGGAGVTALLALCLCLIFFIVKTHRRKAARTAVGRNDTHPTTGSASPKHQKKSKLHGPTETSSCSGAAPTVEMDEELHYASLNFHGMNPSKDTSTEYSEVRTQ

With “anti-CD123 scFv clone CSL362, scFv-luciferase fusion protein”, the fold decrease of affinity (combined mutant against reference) in experiment [1] and in experiment [2] was 100 fold throughout.

B1: anti-CD33 scFv clone HM195, scFv-luciferase fusion protein (scFv, V domains shown)
VH: QVQLVQSGAEVKKPGSSVKVSCKASGYTFTDYNMHWVRQAPGQGLEWIGYIYPYNGGTGYNQKFKSKATITADESTNTAYMELSSLRSEDTAVYYCARGRPAMDYWGQGTLVTVSS
VL: DIQMTQSPSSLSASVGDRVTITCRASESVDNYGISFMNWFQQKPGKAPKLLIYAASNQGSGVPSRFSGSGSGTDFTLTISSLQPDDFATYYCQQSKEVPWTFGQGTKVEIK
notes: Tested as an scFv-luciferase fusion protein
Take B1: the binding result in experiment [3] is listed as “binds”.

B2: anti-CD123 scFv clone 32716, scFv-luciferase fusion protein (scFv, V domains shown)
VH: QIQLVQSGPELKKPGETVKISCKASGYIFTNYGMNWVKQAPGKSFKWMGWINTYTGESTYSADFKGRFAFSLETSASTAYLHINDLKNEDTATYFCARSGGYDPMDYWGQGTSVTVSS
VL: DIVLTQSPASLAVSLGQRATISCRASESVDNYGNTFMHWYQQKPGQPPKLLIYRASNLESGIPARFSGSGSRTDFTLTINPVEADDVATYYCQQSNEDPPTFGAGTKLELK
In the case of B2, in experiment [4], the binding result is reported as “binds”.
